Laboratory results published in patent publication US20180273587A1 (AILERON THERAPEUTICS, published 2018).
Positions of bridges follow the written chain, without caps; N, C: chain ends. Non-standard residues stand in square brackets, D forms with d. Phe(4-CF3) = N[C@@H](Cc1ccc(C(F)(F)F)cc1)C(=O)O; Phe(4-tBu) = CC(C)(C)c1ccc(C[C@H](N)C(=O)O)cc1; R8 = C=CCCCCCC[C@@](C)(N)C(=O)O; S5 = C=CCCC[C@](C)(N)C(=O)O

Tests used:
Experiment in all cases: Ki; method not stated; unit not printed (nM per Table 6)
MCL-1 = molecular target: T1, MCL-1 (UniProt Q07820 172-327, limits assumed)
T1 construct: Target of the Ki columns; also called Myeloid cell leukemia 1
T1 sequence (Q07820 172-327 limits assumed): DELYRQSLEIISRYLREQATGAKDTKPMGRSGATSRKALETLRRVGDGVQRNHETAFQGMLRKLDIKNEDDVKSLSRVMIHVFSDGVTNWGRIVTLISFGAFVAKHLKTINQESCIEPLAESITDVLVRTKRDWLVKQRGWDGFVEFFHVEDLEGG

BCL-XL = molecular target: T2, BCL-XL (UniProt Q07817 1-209)
T2 construct: Target of the Ki columns
T2 sequence (Q07817 1-209): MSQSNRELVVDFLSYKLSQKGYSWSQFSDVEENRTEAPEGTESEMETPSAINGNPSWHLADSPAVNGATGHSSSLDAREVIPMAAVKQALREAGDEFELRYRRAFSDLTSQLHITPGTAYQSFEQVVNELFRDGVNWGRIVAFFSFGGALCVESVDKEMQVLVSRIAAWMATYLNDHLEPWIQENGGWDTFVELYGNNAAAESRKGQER

BCL-2 = molecular target: T3, BCL-2 (UniProt P10415 1-217, limits assumed)
T3 construct: Target of the Ki columns
T3 sequence (P10415 1-217 limits assumed): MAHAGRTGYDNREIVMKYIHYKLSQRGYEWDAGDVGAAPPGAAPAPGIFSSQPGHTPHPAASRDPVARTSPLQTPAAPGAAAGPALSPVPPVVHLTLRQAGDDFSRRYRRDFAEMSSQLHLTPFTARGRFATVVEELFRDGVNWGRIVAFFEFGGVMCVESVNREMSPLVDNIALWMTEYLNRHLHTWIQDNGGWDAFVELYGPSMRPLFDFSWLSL

B1: SEQ ID NO: 1748 (peptide)
peptide: Ac-IWIAAALR[R8]IGDAFD[S5]YYA-NH2
modifications: staple 9-16
SMILES: CC[C@H](C)[C@H](NC(C)=O)C(=O)N[C@@H](Cc1c[nH]c2ccccc12)C(=O)N[C@H](C(=O)N[C@@H](C)C(=O)N[C@@H](C)C(=O)N[C@@H](C)C(=O)N[C@@H](CC(C)C)C(=O)N[C@@H](CCCNC(=N)N)C(=O)N[C@]1(C)CCCCCCC=CCCC[C@@](C)(C(=O)N[C@@H](Cc2ccc(O)cc2)C(=O)N[C@@H](Cc2ccc(O)cc2)C(=O)N[C@@H](C)C(N)=O)NC(=O)[C@H](CC(=O)O)NC(=O)[C@H](Cc2ccccc2)NC(=O)[C@H](C)NC(=O)[C@H](CC(=O)O)NC(=O)CNC(=O)[C@H]([C@@H](C)CC)NC1=O)[C@@H](C)CC
Ki (MCL-1): 0.0015 µM
Ki (BCL-XL): 0.0259 µM
Ki (BCL-2): 0.0353 µM

B2: SEQ ID NO: 1750 (peptide)
peptide: Ac-IWIAAALR[R8]IGDAFQ[S5]YYA-NH2
modifications: staple 9-16
SMILES: CC[C@H](C)[C@H](NC(C)=O)C(=O)N[C@@H](Cc1c[nH]c2ccccc12)C(=O)N[C@H](C(=O)N[C@@H](C)C(=O)N[C@@H](C)C(=O)N[C@@H](C)C(=O)N[C@@H](CC(C)C)C(=O)N[C@@H](CCCNC(=N)N)C(=O)N[C@]1(C)CCCCCCC=CCCC[C@@](C)(C(=O)N[C@@H](Cc2ccc(O)cc2)C(=O)N[C@@H](Cc2ccc(O)cc2)C(=O)N[C@@H](C)C(N)=O)NC(=O)[C@H](CCC(N)=O)NC(=O)[C@H](Cc2ccccc2)NC(=O)[C@H](C)NC(=O)[C@H](CC(=O)O)NC(=O)CNC(=O)[C@H]([C@@H](C)CC)NC1=O)[C@@H](C)CC
Ki (MCL-1): 0.0049 µM
Ki (BCL-XL): 0.0365 µM
Ki (BCL-2): 0.0716 µM

B3: SEQ ID NO: 1752 (peptide)
peptide: Ac-IWIAAALR[R8]IGDAFH[S5]YYA-NH2
modifications: staple 9-16
SMILES: CC[C@H](C)[C@H](NC(C)=O)C(=O)N[C@@H](Cc1c[nH]c2ccccc12)C(=O)N[C@H](C(=O)N[C@@H](C)C(=O)N[C@@H](C)C(=O)N[C@@H](C)C(=O)N[C@@H](CC(C)C)C(=O)N[C@@H](CCCNC(=N)N)C(=O)N[C@]1(C)CCCCCCC=CCCC[C@@](C)(C(=O)N[C@@H](Cc2ccc(O)cc2)C(=O)N[C@@H](Cc2ccc(O)cc2)C(=O)N[C@@H](C)C(N)=O)NC(=O)[C@H](Cc2c[nH]cn2)NC(=O)[C@H](Cc2ccccc2)NC(=O)[C@H](C)NC(=O)[C@H](CC(=O)O)NC(=O)CNC(=O)[C@H]([C@@H](C)CC)NC1=O)[C@@H](C)CC
Ki (MCL-1): 0.008 µM
Ki (BCL-XL): 0.0363 µM
Ki (BCL-2): 0.0574 µM

B4: SEQ ID NO: 1751 (peptide)
peptide: Ac-IWIAAALR[R8]IGDAFS[S5]YYA-NH2
modifications: staple 9-16
SMILES: CC[C@H](C)[C@H](NC(C)=O)C(=O)N[C@@H](Cc1c[nH]c2ccccc12)C(=O)N[C@H](C(=O)N[C@@H](C)C(=O)N[C@@H](C)C(=O)N[C@@H](C)C(=O)N[C@@H](CC(C)C)C(=O)N[C@@H](CCCNC(=N)N)C(=O)N[C@]1(C)CCCCCCC=CCCC[C@@](C)(C(=O)N[C@@H](Cc2ccc(O)cc2)C(=O)N[C@@H](Cc2ccc(O)cc2)C(=O)N[C@@H](C)C(N)=O)NC(=O)[C@H](CO)NC(=O)[C@H](Cc2ccccc2)NC(=O)[C@H](C)NC(=O)[C@H](CC(=O)O)NC(=O)CNC(=O)[C@H]([C@@H](C)CC)NC1=O)[C@@H](C)CC
Ki (MCL-1): 0.008 µM
Ki (BCL-XL): 0.0441 µM
Ki (BCL-2): 0.0675 µM

B5: SEQ ID NO: 1749 (peptide)
peptide: Ac-IWIAAALR[R8]IGDAFE[S5]YYA-NH2
modifications: staple 9-16
SMILES: CC[C@H](C)[C@H](NC(C)=O)C(=O)N[C@@H](Cc1c[nH]c2ccccc12)C(=O)N[C@H](C(=O)N[C@@H](C)C(=O)N[C@@H](C)C(=O)N[C@@H](C)C(=O)N[C@@H](CC(C)C)C(=O)N[C@@H](CCCNC(=N)N)C(=O)N[C@]1(C)CCCCCCC=CCCC[C@@](C)(C(=O)N[C@@H](Cc2ccc(O)cc2)C(=O)N[C@@H](Cc2ccc(O)cc2)C(=O)N[C@@H](C)C(N)=O)NC(=O)[C@H](CCC(=O)O)NC(=O)[C@H](Cc2ccccc2)NC(=O)[C@H](C)NC(=O)[C@H](CC(=O)O)NC(=O)CNC(=O)[C@H]([C@@H](C)CC)NC1=O)[C@@H](C)CC
Ki (MCL-1): 0.0018 µM
Ki (BCL-XL): 0.0179 µM
Ki (BCL-2): 0.0307 µM

B6: SEQ ID NO: 1760 (peptide)
peptide: Ac-IWIAAALR[R8]IGDAFN[S5]YYD-NH2
modifications: staple 9-16
SMILES: CC[C@H](C)[C@H](NC(C)=O)C(=O)N[C@@H](Cc1c[nH]c2ccccc12)C(=O)N[C@H](C(=O)N[C@@H](C)C(=O)N[C@@H](C)C(=O)N[C@@H](C)C(=O)N[C@@H](CC(C)C)C(=O)N[C@@H](CCCNC(=N)N)C(=O)N[C@]1(C)CCCCCCC=CCCC[C@@](C)(C(=O)N[C@@H](Cc2ccc(O)cc2)C(=O)N[C@@H](Cc2ccc(O)cc2)C(=O)N[C@@H](CC(=O)O)C(N)=O)NC(=O)[C@H](CC(N)=O)NC(=O)[C@H](Cc2ccccc2)NC(=O)[C@H](C)NC(=O)[C@H](CC(=O)O)NC(=O)CNC(=O)[C@H]([C@@H](C)CC)NC1=O)[C@@H](C)CC
Ki (MCL-1): 0.0022 µM
Ki (BCL-XL): 0.116 µM
Ki (BCL-2): 0.138 µM

B7: SEQ ID NO: 1762 (peptide)
peptide: Ac-IWIAAALR[R8]IGDAFN[S5]YYQ-NH2
modifications: staple 9-16
SMILES: CC[C@H](C)[C@H](NC(C)=O)C(=O)N[C@@H](Cc1c[nH]c2ccccc12)C(=O)N[C@H](C(=O)N[C@@H](C)C(=O)N[C@@H](C)C(=O)N[C@@H](C)C(=O)N[C@@H](CC(C)C)C(=O)N[C@@H](CCCNC(=N)N)C(=O)N[C@]1(C)CCCCCCC=CCCC[C@@](C)(C(=O)N[C@@H](Cc2ccc(O)cc2)C(=O)N[C@@H](Cc2ccc(O)cc2)C(=O)N[C@@H](CCC(N)=O)C(N)=O)NC(=O)[C@H](CC(N)=O)NC(=O)[C@H](Cc2ccccc2)NC(=O)[C@H](C)NC(=O)[C@H](CC(=O)O)NC(=O)CNC(=O)[C@H]([C@@H](C)CC)NC1=O)[C@@H](C)CC
Ki (MCL-1): 0.0046 µM
Ki (BCL-XL): 0.0411 µM
Ki (BCL-2): 0.0647 µM

B8: SEQ ID NO: 1761 (peptide)
peptide: Ac-IWIAAALR[R8]IGDAFN[S5]YYE-NH2
modifications: staple 9-16
SMILES: CC[C@H](C)[C@H](NC(C)=O)C(=O)N[C@@H](Cc1c[nH]c2ccccc12)C(=O)N[C@H](C(=O)N[C@@H](C)C(=O)N[C@@H](C)C(=O)N[C@@H](C)C(=O)N[C@@H](CC(C)C)C(=O)N[C@@H](CCCNC(=N)N)C(=O)N[C@]1(C)CCCCCCC=CCCC[C@@](C)(C(=O)N[C@@H](Cc2ccc(O)cc2)C(=O)N[C@@H](Cc2ccc(O)cc2)C(=O)N[C@@H](CCC(=O)O)C(N)=O)NC(=O)[C@H](CC(N)=O)NC(=O)[C@H](Cc2ccccc2)NC(=O)[C@H](C)NC(=O)[C@H](CC(=O)O)NC(=O)CNC(=O)[C@H]([C@@H](C)CC)NC1=O)[C@@H](C)CC
Ki (MCL-1): 0.0014 µM
Ki (BCL-XL): 0.0454 µM
Ki (BCL-2): 0.0564 µM

B9: SEQ ID NO: 1753 (peptide)
peptide: Ac-IWIAAALR[R8]IGDAFN[S5]LYA-NH2
modifications: staple 9-16
SMILES: CC[C@H](C)[C@H](NC(C)=O)C(=O)N[C@@H](Cc1c[nH]c2ccccc12)C(=O)N[C@H](C(=O)N[C@@H](C)C(=O)N[C@@H](C)C(=O)N[C@@H](C)C(=O)N[C@@H](CC(C)C)C(=O)N[C@@H](CCCNC(=N)N)C(=O)N[C@]1(C)CCCCCCC=CCCC[C@@](C)(C(=O)N[C@@H](CC(C)C)C(=O)N[C@@H](Cc2ccc(O)cc2)C(=O)N[C@@H](C)C(N)=O)NC(=O)[C@H](CC(N)=O)NC(=O)[C@H](Cc2ccccc2)NC(=O)[C@H](C)NC(=O)[C@H](CC(=O)O)NC(=O)CNC(=O)[C@H]([C@@H](C)CC)NC1=O)[C@@H](C)CC
Ki (MCL-1): 0.0176 µM
Ki (BCL-XL): 0.0699 µM
Ki (BCL-2): 0.125 µM

B10: SEQ ID NO: 1744 (peptide)
peptide: Ac-IWIAQALR[R8]IGDA[Phe(4-CF3)]N[S5]YYA-NH2
modifications: staple 9-16
SMILES: CC[C@H](C)[C@H](NC(C)=O)C(=O)N[C@@H](Cc1c[nH]c2ccccc12)C(=O)N[C@H](C(=O)N[C@@H](C)C(=O)N[C@@H](CCC(N)=O)C(=O)N[C@@H](C)C(=O)N[C@@H](CC(C)C)C(=O)N[C@@H](CCCNC(=N)N)C(=O)N[C@]1(C)CCCCCCC=CCCC[C@@](C)(C(=O)N[C@@H](Cc2ccc(O)cc2)C(=O)N[C@@H](Cc2ccc(O)cc2)C(=O)N[C@@H](C)C(N)=O)NC(=O)[C@H](CC(N)=O)NC(=O)[C@H](Cc2ccc(C(F)(F)F)cc2)NC(=O)[C@H](C)NC(=O)[C@H](CC(=O)O)NC(=O)CNC(=O)[C@H]([C@@H](C)CC)NC1=O)[C@@H](C)CC
Ki (MCL-1): 0.0082 µM
Ki (BCL-XL): 0.107 µM
Ki (BCL-2): 0.104 µM

IWIAQALRAIGDAXNAYYA (N-terminal Ac; $r8 at 9 and $ at 16 (crosslinked); Bip at 14; C-terminal NH2) [SEQ ID NO: 1747]
Ki (MCL-1): 0.0065 µM
Ki (BCL-XL): 0.1 µM
Ki (BCL-2): 0.114 µM

B11: SEQ ID NO: 1745 (peptide)
peptide: Ac-IWIAQALR[R8]IGDA[Phe(4-tBu)]N[S5]YYA-NH2
modifications: staple 9-16
SMILES: CC[C@H](C)[C@H](NC(C)=O)C(=O)N[C@@H](Cc1c[nH]c2ccccc12)C(=O)N[C@H](C(=O)N[C@@H](C)C(=O)N[C@@H](CCC(N)=O)C(=O)N[C@@H](C)C(=O)N[C@@H](CC(C)C)C(=O)N[C@@H](CCCNC(=N)N)C(=O)N[C@]1(C)CCCCCCC=CCCC[C@@](C)(C(=O)N[C@@H](Cc2ccc(O)cc2)C(=O)N[C@@H](Cc2ccc(O)cc2)C(=O)N[C@@H](C)C(N)=O)NC(=O)[C@H](CC(N)=O)NC(=O)[C@H](Cc2ccc(C(C)(C)C)cc2)NC(=O)[C@H](C)NC(=O)[C@H](CC(=O)O)NC(=O)CNC(=O)[C@H]([C@@H](C)CC)NC1=O)[C@@H](C)CC
Ki (MCL-1): 0.0212 µM
Ki (BCL-XL): 0.154 µM
Ki (BCL-2): 0.158 µM
